Data reported in the supplement of paper PMC11908140.

B1: library; numbered along this chain (parent)
chain: MRKPRAAVGSGHRKQAASQEGRQKHAKNNSQAKPSACDGLARQPEEVVLQASVSSYHLFRDVAEVTAFRGSLLSWYDQEKRDLPWRRRAEDEMDLDRRAYAVWVSEVMLQQTQVATVINYYTGWMQKWPTLQDLASASLEEVNQLWAGLGYYSRGRRLQEGARKVVEELGGHMPRTAETLQQLLPGVGRYTAGAIASIAFGQATGVVDGNVARVLCRVRAIGADPSSTLVSQQLWGLAQQLVDPARPGDFNQAAMELGATVCTPQRPLCSQCPVESLCRARQRVEQEQLLASGSLSGSPDVEECAPNTGQCHLCLPPSEPWDQTLGVVNFPRKASRKPPREESSATCVLEQPGALGAQILLVQRPNSGLLAGLWEFPSVTWEPSEQLQRKALLQELQRWAGPLPATHLRHLGEVVHTFSHIKLTYQVYGLALEGQTPVTTVPPGARWLTQEEFHTAAVSTAMKKVFRVYQGQQPGTCMGSKRSQVSSPCSRKKPRMGQQVLDNFFRSHISTDAHSLNSAAQ

Variants of: B1
Assay: 8OG:A repair function score (normalized; synonymous = 0, nonsense = -1) (normalized log-likelihood score); higher = more repair activity (WT-like)
Details: with 8OG:A DNA repair reporter (GFP) in HEK-293 MUTYH KO cells
Summary of the method: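 MUTYH knockout HEK-293 cells carrying lentiviral MUTYH cDNA NNN codon-scan libraries were grown with 10 pg/ml doxycycline and co-transfected with mCherry and a GFP reporter of 8OG:A repair. Viable mCherry+ cells were sorted at 72 h into GFP+ (repair) and GFP− bins, with three replicates per tile, and tile amplicons were sequenced. Rosace fitness scores for each tile were turned into a normalized repair function score anchored on the synonymous and nonsense distributions. Synonymous medians were set to 0 and nonsense medians to -1, and variants below 300 counts per million at the start were dropped.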

In order of falling “8OG:A repair function score” value:
1. K390H  0.403
2. S378T  0.295
3. P365K  0.177
4. L145Q  0.154
5. P365I  0.146
6. E141N  0.127
7. T116K  0.113
8. T439M  0.106
9. K3L  0.0859
10. E178T  0.0829
11. S153F  0.0735
12. T179M  0.0538
13. A254V  0.0529
14. V117C  0.0468
15. V117T  0.0387
16. Q159I  0.0245
17. R491I  0.0211
18. S298G  0.0202
19. Q498I  0.0195
20. V485R  0.0173
21. S483F  0.0169
22. A520N  0.0153
23. C489S  0.0134
24. K492W  0.0127
25. A520K  0.00969
26. R97C  0.00684
27. A101S  0.00626
28. L58H  0.00605
29. A334V  0.00558
30. S71V  0.00531
31. E287S  0.005
32. P320G  0.00385
33. P44K  0.00377
34. S483L  0.00323
35. Y56M  0.00205
36. G479A  0.00119
37. P338R  0.00053
38. A67V  -0.000602
39. L295S  -0.0013
40. L277W  -0.00135
41. E79S  -0.00165
42. T179C  -0.0042
43. S510K  -0.00453
44. V500D  -0.00453
45. T511M  -0.0046
46. G70M  -0.00743
47. V53K  -0.0093
48. S292G  -0.00959
49. L131T  -0.0104
50. E90N  -0.0107
51. Q472M  -0.0129
52. S270M  -0.0147
53. V301I  -0.0154
54. P339Q  -0.0157
55. P488A  -0.0161
56. P474W  -0.0167
57. T263K  -0.017
58. D502A  -0.0186
59. P338Y  -0.0269
60. G309N  -0.0326
61. Q282I  -0.0327
62. A305R  -0.0332
63. R175N  -0.0345
64. P317C  -0.0347
65. E433H  -0.0353
66. L183T  -0.0372
67. A147N  -0.0408
68. L183E  -0.0475
69. G401S  -0.0552
70. T380E  -0.0632
71. L355H  -0.0638
72. W321E  -0.0643
73. L403P  -0.0649
74. L325H  -0.0759
75. Q351S  -0.0771
76. Q132V  -0.0799
77. H312G  -0.0894
78. N119P  -0.0904
79. L393K  -0.0987
80. A223K  -0.118
81. D77R  -0.122
82. P316S  -0.123
83. T346M  -0.125
84. Y120S  -0.126
85. Q113C  -0.133
86. L73T  -0.136
87. A259H  -0.138
88. V48Y  -0.141
89. R467E  -0.144
90. V441D  -0.144
91. A345S  -0.148
92. E451Q  -0.157
93. A405N  -0.161
94. T130E  -0.171
95. A162C  -0.175
96. L237T  -0.184
97. F453V  -0.184
98. P404G  -0.187
99. G155N  -0.213
100. V301Y  -0.219
101. C304A  -0.225
102. E375M  -0.229
103. G201T  -0.23
104. E451K  -0.241
105. W321I  -0.25
106. S378H  -0.255
107. P129G  -0.263
108. V301R  -0.275
109. V301K  -0.283
110. N329D  -0.288
111. R163W  -0.296
112. L313Q  -0.328
113. R340P  -0.328
114. S367I  -0.335
115. T460P  -0.347
116. G368K  -0.348
117. F59A  -0.359
118. T449F  -0.363
119. N329E  -0.365
120. V207L  -0.375
121. G401C  -0.381
122. F68T  -0.393
123. W128I  -0.397
124. P244L  -0.398
125. Q232W  -0.433
126. C314G  -0.468
127. C311H  -0.471
128. W146Y  -0.532
129. S419I  -0.542
130. A147Y  -0.549
131. V230W  -0.571
132. V107H  -0.608
133. Y425N  -0.608
134. Q397I  -0.624
135. G171Y  -0.628
136. V458R  -0.663
137. L361Q  -0.666
138. G372P  -0.669
139. P267Q  -0.679
140. L423P  -0.683
141. A238D  -0.714
142. R86K  -0.756
143. E256A  -0.756
144. L234W  -0.79
145. W128Q  -0.844
146. G205F  -0.891
147. G205W  -0.894
148. T204P  -0.903
149. Y121A  -0.942
150. Y152R  -0.956
151. Y151D  -1
152. A162L  -1
153. L73D  -1.01
154. A137L  -1.02
155. A253E  -1.02
156. V427G  -1.03
157. G205L  -1.03
158. R154S  -1.03
159. W75M  -1.05
160. L158E  -1.05
161. M108A  -1.06
162. L184E  -1.09
163. L180D  -1.1
164. V165H  -1.11
165. L349R  -1.15
166. Y151E  -1.21
167. C262K  -1.3
